Experimental data from US9255270B2, “Methods used in sensitizing invasive glioblastoma to therapeutic treatment” (Translational Genomics Research Institute, priority 2009, dated 2016).

What was measured:
[1] = test system: T98G and SF767 glioma cells; experiment: Apoptotic assay (nuclear morphology of DAPI stained cells); format: cell-based, Human
Procedure: (§1) Human astrocytoma cell lines T98G, U87, U118, SNB19 (American Type Culture Collection) and SF767 (University of California at San Francisco) were maintained in Dulbecco's modified Eagle's medium (DMEM)+10% heat inactivated fetal bovine serum (FBS) in a 37° C., 5% CO2 atmosphere. In all assays treated with TWEAK, cells were cultured in reduced serum (0.5% FBS) for 16 h prior to stimulation with recombinant TWEAK at 100 ng/ml in DMEM+0.1% BSA for the indicated times.
Apoptotic cells were evaluated by nuclear morphology of DAPI stained cells as described previously (See Reference 11). Briefly, cells with condensed, fragmented chromatin were manually scored as apoptotic cells. At least five fields (total of 1000 cells) were evaluated, and data reported as apoptotic cells/total cells×100. Verification of apoptotic cells was conducted by co-immunofluorescence staining using a monoclonal antibody against activated cleaved caspase 3. At least 1000 cells per treatment were evaluated for condensed chromatin and activated caspase 3 (See Reference 11).
TWEAK stimulation of glioma cell survival depends on Akt2 function. SiRNA specific for Akt1 (FIG. 12) and Akt2 (FIG. 13) suppress expression of Akt1 and Ak2 protein in both. T98G and SF767 glioma cells. […] After 72 hours, protein lysates were collected and analyzed by Western blotting for Akt1, Akt2 and α-tubulin. […] Cells with condensed, fragmented chromatin were manually scored as apoptotic cells. At least 10 fields (total of 1000 cells) were evaluated and data reported as apoptotic cells/total cells×100. […]
(§2) In FIGS. 18 and 19, TWEAK-induced BAD phosphorylation on serine 136 is dependent upon Akt2 function. […] Cellular lysates were collected and analyzed for phosphorylated BAD Ser-136 and total BAD by ELISA. […] After 72 hours protein lysates were collected and analyzed by Western blotting for BAD and α-tubulin. […] Cells with condensed, fragmented chromatin were manually scored as apoptotic cells. At least 10 fields (total of 1000 cells) were evaluated and data reported as apoptotic cells/total cells×100. […]

[2] = test system: Akt-Ser473 phosphorylation; experiment: Western blot of Akt-Ser473 phosphorylation in TWEAK-treated glioma cells; format: cell-based, Human
Procedure: as §1
(§3) Immunoblotting and protein determination experiments were performed as described previously (See Reference 11). In some experiments, TWEAK (100 ng/ml) was preincubated with 2.5 μg/ml soluble Fn14-Fc decoy receptor or control Fc protein at 37° C. for 15 min before adding it to cells (See Reference 26). Also, in some cases, cells were pretreated with the PI3K inhibitor LY294002 (10 μM) for 10 min prior to TWEAK addition. For immunoprecipitation, cells were lysed on ice for 10 min in a buffer containing 10 mM Tris-HCl, pH 7.4, 0.5% Nonidet P-40, 150 mM NaCl, 1 mM phenylmethylsulfonyl fluoride, 1 mM EDTA, 2 mM sodium vanadate, 10 μg/ml aprotinin, and 10 μg/ml leupeptin (Sigma). […] Samples were then resuspended in 2×SDS sample buffer and boiled in the presence of 2-mercaptoethanol (Sigma), separated by SDS-PAGE, transferred to nitrocellulose for 1 h at 4° C., and proteins were detected as described previously (See Reference 27). […]
Referring now to FIG. 1, T98G and SF767 glioma cells were treated with TWEAK and then harvested at the indicated times. Protein lysates were analyzed by Western blotting using antibodies to Akt Ser-473, total Akt, and α-tubulin. […] Total cell lysates were collected after 10 min of TWEAK treatment and analyzed for phosphorylated Akt-473, total Akt, and α-tubulin. […] Cells were treated with TWEAK for 10 minutes and protein lysates were analyzed for phosphorylated Akt-473, total Akt, Rac1 and α-tubulin. […]

[3] = test system: BAD (Ser 136) phosphorylation; experiment: PhosphoBAD (Ser 136) sandwich ELISA; set-up: species or system Human; details: cell-based ELISA; glioma cells
Procedure: Phosphorylation levels of BAD (Ser 136) were determined using a cell-based ELISA. Glioma cells were transfected with siRNA oligonucleotides against AKT1, AKT2, or non-mammalian GL2 luciferase control siRNA and incubated overnight. The cells were cultured overnight in DMEM with 0.5% FBS prior to TWEAK or control PBS addition in DMEM with 0.1% BSA for 15 min. Total cellular lysates were collected according to manufacturer's instructions utilizing the PathScan Sandwich ELISA kit (Cell Signaling). Each sample (100 μg total protein) was diluted 1:1 in sample buffer for a final volume of 200 μL prior to addition to the designated microstrip wells previously coated by the manufacturer with a BAD rabbit monoclonal capture antibody. The microstrips were then sealed and incubated overnight at 4° C. on a plate shaker. […] Stop solution was omitted and absorbance read at 600 nm (See Reference 29).
as §2

Akt2 = experiment: Immunoprecipitation with isoform-specific antibody, immunoblot for phospho Akt-473; format: cell-based, Human; details: T98G cells; TWEAK 10 min
Procedure: as §3
(§4) The protein expression of Akt1 and Akt2 across five different glioma cell lines was assessed. […]
(§5) Akt1 and Akt2 are expressed in glioma cell lines and are phosphorylated in TWEAK stimulated cells. Referring now to FIG. 10: T98G, SNB19, SF767, U87, and U118 cell lysates were analyzed for endogenous levels of Akt1 and Akt2 by Western blotting. To monitor gel loading, α-tubulin protein levels were also analyzed. […]

Akt1 = experiment: as above; format: cell-based, Human; details: T98G cells; TWEAK 10 min
Procedure: as §3, §4, §5

B1: TWEAK: recombinant TWEAK, TNF superfamily ligand of the Fn14 receptor, used at 100 ng/ml (protein)
chain: SAPKGRKTRARRAIAAHYEVHPRPGQDGAQAGVDGTVSGWEEARINSSSPLRYNRQIGEFIVTRAGLYYLYCQVHFDEGKAVYLKLDLLVDGVLALRCLEEFSATAASSLGPQLRLCQVSGLLALRPGSSLRIRTLPWAHLKAAPFLTYFGLFQVH
[1]; BAD siRNA transfected glioma cells
  effect of TWEAK pretreatment on apoptosis by cytotoxic or chemotherapeutic agents in cells with BAD expression suppressed: still protected glioma cells from apoptosis
[1]; TWEAK 100 ng/ml 2 hours before TMZ 200 μM
  effect of TWEAK pretreatment on TMZ induced cell death: suppressed TMZ induced cell death
[1]; TWEAK 100 ng/ml 2 hours before TRAIL or camptothecin, control siRNA cells
  effect of TWEAK pretreatment on cytotoxic therapy-induced apoptosis: abrogated cytotoxic therapy-induced apoptosis
[2]; TWEAK 100 ng/ml, T98G and SF767 glioma cells
  Akt-Ser473 phosphorylation after TWEAK treatment (immunoblot of whole cellular lysates): induction of Akt-Ser473 phosphorylation
[2]; TWEAK treatment, T98G and SF767
  duration of TWEAK treatment after which Akt-Ser473 phosphorylation diminished: more than 1 hour
[2]; TWEAK treatment, both T98G and SF767 cell lines
  time after which phosphorylation of Akt-Ser473 was detected: 5 min
[3]
  amount of phosphorylated BAD-Ser136 upon TWEAK stimulation: increased approximately two-fold
  amount of total BAD upon TWEAK stimulation: did not change significantly
Akt2
  induction of phosphorylation of Akt2 following TWEAK treatment: two-fold induction
Akt1
  induction of phosphorylation of Akt1 following TWEAK treatment: two-fold induction
